Reference: patent publication US20030028904A1

Target: His-tagged Dock180 (UniProt Q14185)
Assay: cell-based or functional assay

Sequence of ELMO1-GFP (Q8BPU7 whole entry): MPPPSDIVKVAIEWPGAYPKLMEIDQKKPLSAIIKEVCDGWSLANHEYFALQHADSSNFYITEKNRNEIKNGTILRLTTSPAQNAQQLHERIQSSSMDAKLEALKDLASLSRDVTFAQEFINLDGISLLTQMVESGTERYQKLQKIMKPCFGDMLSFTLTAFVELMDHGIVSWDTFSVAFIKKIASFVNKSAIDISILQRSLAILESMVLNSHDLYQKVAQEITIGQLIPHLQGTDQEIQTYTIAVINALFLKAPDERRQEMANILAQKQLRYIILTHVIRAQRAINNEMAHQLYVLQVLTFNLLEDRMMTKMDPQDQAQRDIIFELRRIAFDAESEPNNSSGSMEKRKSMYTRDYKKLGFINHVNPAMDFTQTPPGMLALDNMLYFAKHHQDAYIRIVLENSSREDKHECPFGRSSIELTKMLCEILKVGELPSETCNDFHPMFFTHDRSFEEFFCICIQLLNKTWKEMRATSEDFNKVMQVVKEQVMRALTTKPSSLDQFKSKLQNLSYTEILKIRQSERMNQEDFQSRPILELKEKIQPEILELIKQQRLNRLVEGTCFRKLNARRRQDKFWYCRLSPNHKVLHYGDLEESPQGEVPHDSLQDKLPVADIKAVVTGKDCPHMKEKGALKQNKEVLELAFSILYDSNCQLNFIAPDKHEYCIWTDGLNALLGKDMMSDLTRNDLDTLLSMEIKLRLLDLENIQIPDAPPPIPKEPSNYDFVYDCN

bead uptake in the LR73 phagocytosis assay (GFP positive cells with engulfed particles): 2 fold
Substance: ELMO1-GFP (from UniProt Q8BPU7 1-727)
